Laboratory results published in article PMC11094088, “Molecular mechanism of Oxr1p mediated disassembly of yeast V-ATPase” (EMBO Reports, 2024).

B1: Oxidation Resistance protein 1 (Oxr1p), recombinant (natural protein, yeast, UniProt Q08952 1-273, looked up)
chain: MFGVKDAIFKIKRSIAGTDSSDSTAYTTASESSPQLKDSHNPFRNKTTSERTIVEEGSLPPVRLNGYLPSTKNKLLTPEMCDEIRTLMPTRIQLYTEWNLLYSLEQHGSSLHSLYSNVAPDSKEFRRVGYVLVIKDRKNGIFGAYSNEAFHPNEHRQYTGNGECFLWKLDKVPDVNISEKEESEQEGKEGKEEGDKEERWRFSGYPYTGVNEFAIYCTSEFLSMGAGDGHYGLLCDDGLLHGVSNPCQTYGNEVLSKEGKKFSIVALEVWRVG
notes: Oxr1p, yeast TLDc domain protein; construct as described in Khan et al, 2022; also called recombinant Oxr1p; source: E. coli BL21DE3, purified (Ni-NTA, Superdex-75 SEC); not shown: 7xHis, N-terminal, kept

Legend:
[1] = molecular target: recombinant N-terminally 7×His tagged biotinylated Oxr1p (bio-Oxr1p) (yeast) (UniProt Q08952); test: BLI; bio-Oxr1p (10 µg/ml) immobilised on streptavidin biosensors, V1ΔH^(ΔOxr1) with or without recombinant subunit C in solution; 20 mM Tris-HCl pH 7.0, 0.5 mM EDTA, β-mercaptoethanol, 5.0 mg/ml BSA; 23 °C; global fitting
[2] = molecular target: V1ΔH^(ΔOxr1) in the presence of recombinant subunit C (yeast (endogenous) | yeast) (UniProt P16140); test: BLI; α-mouse IgG Fc capture biosensors loaded with α-MBP antibody, then MBP-HWT or MBP-H_(chim) (5 µg/ml); 40 nM V1ΔH in solution with buffer, Oxr1p (equimolar), subunit C (twofold molar excess) or Oxr1p + subunit C; TBSE plus 0.5 mg/ml BSA; 23 °C
[3] = molecular target: wild-type yeast V-ATPase reconstituted into lipid nanodiscs (V1VoND) (yeast (endogenous) | yeast) (UniProt P16140)
[4] = molecular target: T1, V1 subunit B (the B subunit of the open catalytic site), in the purified V-ATPase (yeast (endogenous), UniProt P16140 1-517); test: cryo-EM structure; V-ATPase in lipid nanodiscs (~1-2 mg/ml) vitrified with a twofold molar excess of Oxr1p, no nucleotide; 3-D classes at ~8.2 Å; Oxr1p density in the rotary state 1 class (~31% of particles); conditions: both partners purified
T1 construct: V1 subunit B, yeast; source: endogenous, part of the purified yeast V-ATPase in lipid nanodiscs
T1 sequence (P16140 whole entry): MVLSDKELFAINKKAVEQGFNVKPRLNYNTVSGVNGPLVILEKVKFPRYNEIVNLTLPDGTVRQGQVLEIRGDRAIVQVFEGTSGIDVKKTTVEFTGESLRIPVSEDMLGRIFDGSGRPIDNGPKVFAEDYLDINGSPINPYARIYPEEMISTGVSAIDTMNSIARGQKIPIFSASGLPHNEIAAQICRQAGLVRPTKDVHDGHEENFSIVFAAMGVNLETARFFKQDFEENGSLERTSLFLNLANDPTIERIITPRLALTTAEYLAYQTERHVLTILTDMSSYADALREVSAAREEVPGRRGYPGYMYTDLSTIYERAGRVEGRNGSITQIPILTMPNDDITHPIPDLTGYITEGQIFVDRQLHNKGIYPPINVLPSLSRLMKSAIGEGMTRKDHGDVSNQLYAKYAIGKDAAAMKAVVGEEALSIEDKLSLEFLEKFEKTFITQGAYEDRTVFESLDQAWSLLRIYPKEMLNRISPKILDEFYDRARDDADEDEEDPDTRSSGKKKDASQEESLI

[5] = molecular target: wild-type yeast V-ATPase reconstituted into lipid nanodiscs (V1VoND) (yeast (endogenous) | yeast) (UniProt P16140); remark: listed apart in the source

Molecule | Kd [1] [nM] | percent reduction of V1ΔH binding to immobilised H (chim) (subunit C and Oxr1p, against Oxr1p only) [2] [%] | percent reduction of V1ΔH binding to immobilised wild-type H (subunit C and Oxr1p, against Oxr1p only) [2] [%] | ATPase activity of purified V-ATPase in nanodiscs left after incubation with a twofold molar excess of Oxr1p, 30 min to 16 h, relative to the starting activity [3] [%] | binding result [4] | loss of ATPase activity of purified V-ATPase after 30 min with a twofold molar excess of Oxr1p alone [5] [%]
V1ΔH, V1 subcomplex without subunit H (FLAG-tagged subunit G), from the oxr1Δvma13Δ background (from UniProt P16140 1-517; P32610 1-256; P22203 1-233; P39111 1-118; P48836 1-114) | 67 | – | – | – | – | –
V1ΔH^(ΔOxr1) in the presence of recombinant subunit C (from UniProt P16140 1-517; P32610 1-256; P22203 1-233; P39111 1-118; P48836 1-114; P31412 1-392) (complex) | 7 | – | – | – | – | –
B1 | – | 25 | 60 | 70 | binds | 30
